± gives the standard deviation of the averaged measurements.
Test: total protein half-life in vivo (active degradation + dilution); higher = more stable protein
[1] = E. coli NCM3722 delta-clpP delta-lon delta-hslV, growth: N-lim chemostat, doubling time 6 h
[2] = E. coli NCM3722 delta-clpP, growth: N-lim chemostat, doubling time 6 h
[3] = E. coli NCM3722 delta-hslV, growth: N-lim chemostat, doubling time 6 h
[4] = E. coli NCM3722 delta-lon, growth: N-lim chemostat, doubling time 6 h
[5] = E. coli NCM3722 delta-smpB, growth: N-lim chemostat, doubling time 6 h
[6] = wild type E. coli NCM3722, growth: C-lim chemostat, doubling time 3 h
[7] = wild type E. coli NCM3722, growth: C-lim chemostat, doubling time 6 h
[8] = wild type E. coli NCM3722, growth: C-lim chemostat, doubling time 12 h
[9] = wild type E. coli NCM3722, growth: N-lim chemostat, doubling time 6 h
[10] = wild type E. coli NCM3722, growth: N-lim chemostat, doubling time 12 h
[11] = wild type E. coli NCM3722, growth: P-lim chemostat, doubling time 6 h
[12] = wild type E. coli NCM3722, growth: P-lim chemostat, doubling time 12 h

Sequence	total protein half-life in vivo [1]	total protein half-life in vivo [2]	total protein half-life in vivo [3]	total protein half-life in vivo [4]	total protein half-life in vivo [5]	total protein half-life in vivo [6]	total protein half-life in vivo [7]	total protein half-life in vivo [8]	total protein half-life in vivo [9]	total protein half-life in vivo [10]	total protein half-life in vivo [11]	total protein half-life in vivo [12]
MKFIGKLLLYILIALLVAIAGLYFLLQTRWGAEHISAWVSENSDYHLAFGAMDHRFSAPSHIVLENVTFGRDGQPATLVAKSVDIALSSRQLTEPRHVDTILLENGTLNLTDQTAPLPFKADRLQLRDMAFNSPNSEWKLSAQRVNGGVVPWSPKAGKVLGTKAQIQFSAGSLSLNDVPATNVLIEGSIDNDRVTLTNLGADIARGTLTGNAQRNADGSWQVENLRMADIRLQSEKSLTDFFAPLRSVPSLQIGRLEVIDARLQGPDWAVTDLDLSLRNMTFSKDDWQTQEGKLSMNASEFIYGSLHLFDPIINTEFSPQGVALRQFTSRWEGGMVRTSGNWLRDGKTLILDDAAIAGLEYTLPKNWQQLWMETTPGWLNSLQLKRFSASRNLIIDIDPDFPWQLTALDGYGANLTLVTDHKWGVWSGSANLNAAAATFNRVDVRRPSLALTANSSTVNISELSAFTEKGILEATASVSQTPQRQTHISLNGRGVPVNILQQWGWPELPLTGDGNIQLTASGDIQANVPLKPTVSGQLHAVNAAKQQVTQTMNAGIVSSGEVTSTEPVR	6.81 ± 0.67 h	6.85 ± 0.84 h	6.19 ± 0.067 h	6.3 ± 0.072 h	6.28 ± 0.42 h	3.2 ± 0.15 h	5.9 ± 0.12 h	11.4 ± 1 h	6.16 ± 0.12 h	12.6 ± 0.84 h	6.26 ± 0.23 h	12 ± 0.2 h
MKFIIKLFPEITIKSQSVRLRFIKILTGNIRNVLKHYDETLAVVRHWDNIEVRAKDENQRLAIRDALTRIPGIHHILEVEDVPFTDMHDIFEKALVQYRDQLEGKTFCVRVKRRGKHDFSSIDVERYVGGGLNQHIESARVKLTNPDVTVHLEVEDDRLLLIKGRYEGIGGFPIGTQEDVLSLISGGFDSGVSSYMLMRRGCRVHYCFFNLGGAAHEIGVRQVAHYLWNRFGSSHRVRFVAINFEPVVGEILEKIDDGQMGVILKRMMVRAASKVAERYGVQALVTGEALGQVSSQTLTNLRLIDNVSDTLILRPLISYDKEHIINLARQIGTEDFARTMPEYCGVISKSPTVKAVKSKIEAEEEKFDFSILDKVVEEANNVDIREIAQQTEQEVVEVETVNGFGPNDVILDIRSIDEQEDKPLKVEGIDVVSLPFYKLSTKFGDLDQNKTWLLWCERGVMSRLQALYLREQGFNNVKVYRP	4.16 ± 1 h	2.72 ± 0.25 h	2.86 ± 0.2 h	3.57 ± 0.082 h	2.827 ± 0.0041 h	3 ± 0.2 h	4.62 ± 0.53 h	7.48 ± 0.32 h	2.952 ± 0.021 h	3.99 ± 0.086 h	5.66 ± 1.4 h	8.76 ± 0.25 h
MKFKVIALAALMGISGMAAQANELPDGPHIVTSGTASVDAVPDIATLAIEVNVAAKDAATAKKQADERVAQYISFLELNQIAKKDISSANLRTQPDYDYQDGKSILKGYRAVRTVEVTLRQLDKLNSLLDGALKAGLNEIRSVSLGVAQPDAYKDKARKAAIDNAIHQAQELANGFHRKLGPVYSVRYHVSNYQPSPMVRMMKADAAPVSAQETYEQAAIQFDDQVDVVFQLEPVDQQPAKTPAAQ [P0ADS6]	6.45 ± 0.46 h	6.67 ± 0.7 h		6.77 ± 1.2 h	5.98 ± 0.096 h	3.2 ± 0.14 h	5.88 ± 0.43 h	12.1 ± 1.4 h	5.83 ± 0.65 h	12.1 ± 1.2 h	5.59 ± 0.14 h	11.7 ± 0.76 h
MKFPGKRKSKHYFPVNARDPLLQQFQPENETSAAWVVGIDQTLVDIEAKVDDEFIERYGLSAGHSLVIEDDVAEALYQELKQKNLITHQFAGGTIGNTMHNYSVLADDRSVLLGVMCSNIEIGSYAYRYLCNTSSRTDLNYLQGVDGPIGRCFTLIGESGERTFAISPGHMNQLRAESIPEDVIAGASALVLTSYLVRCKPGEPMPEATMKAIEYAKKYNVPVVLTLGTKFVIAENPQWWQQFLKDHVSILAMNEDEAEALTGESDPLLASDKALDWVDLVLCTAGPIGLYMAGFTEDEAKRKTQHPLLPGAIAEFNQYEFSRAMRHKDCQNPLRVYSHIAPYMGGPEKIMNTNGAGDGALAALLHDITANSYHRSNVPNSSKHKFTWLTYSSLAQVCKYANRVSYQVLNQHSPRLTRGLPEREDSLEESYWDR [P0AEW6]	4.78 ± 0.21 h	5.5 ± 1.9 h	4.38 ± 0.28 h	6.01 ± 2.3 h	4.03 ± 0.31 h	2.86 ± 0.38 h	5.87 ± 1.5 h	8.23 h	4.14 ± 0.24 h	8.14 ± 1.9 h	5.07 ± 0.35 h	9.56 ± 0.61 h
MKFTQRLSLRVRLTLIFLILASVTWLLSSFVAWKQTTDNVDELFDTQLMLFAKRLSTLDLNEINAADRMAQTPNRLKHGHVDDDALTFAIFTHDGRMVLNDGDNGEDIPYSYQREGFADGQLVGEDDPWRFVWMTSPDGKYRIVVGQEWEYREDMALAIVAGQLIPWLVALPIMLIIMMVLLGRELAPLNKLALALRMRDPDSEKPLNATGVPSEVRPLVESLNQLFARTHAMMVRERRFTSDAAHELRSPLTALKVQTEVAQLSDDDPQARKKALLQLHSGIDRATRLVDQLLTLSRLDSLDNLQDVAEIPLEDLLQSSVMDIYHTAQQAKIDVRLTLNAHSIKRTGQPLLLSLLVRNLLDNAVRYSPQGSVVDVTLNADNFIVRDNGPGVTPEALARIGERFYRPPGQTATGSGLGLSIVQRIAKLHGMNVEFGNAEQGGFEAKVSW	5.9 ± 0.21 h	6.26 ± 0.56 h	6.38 ± 0.11 h		5.66 ± 0.13 h	3.19 h		14.6 ± 1.6 h	5.98 ± 0.52 h	14.08 ± 0.14 h	6.13 ± 0.39 h	12.4 ± 3.3 h
MKFVSFNINGLRARPHQLEAIVEKHQPDVIGLQETKVHDDMFPLEEVAKLGYNVFYHGQKGHYGVALLTKETPIAVRRGFPGDDEEAQRRIIMAEIPSLLGNVTVINGYFPQGESRDHPIKFPAKAQFYQNLQNYLETELKRDNPVLIMGDMNISPTDLDIGIGEENRKRWLRTGKCSFLPEEREWMDRLMSWGLVDTFRHANPQTADRFSWFDYRSKGFDDNRGLRIDLLLASQPLAECCVETGIDYEIRSMEKPSDHAPVWATFRR	5.619 ± 0.036 h	5.58 ± 0.29 h	5.75 ± 0.011 h	6.04 ± 1.2 h	5.27 ± 0.3 h	3.14 ± 0.45 h	5.863 ± 0.013 h	10.9 ± 0.79 h	5.46 ± 0.4 h	10.8 ± 0.2 h	5.61 ± 0.2 h	11.9 ± 1.3 h

Source: the supplement of paper PMC11246515
